From patent publication US20250057128A1, “HUMANIZED MOUSE MODELS” (The Jackson Laboratory, priority 2021, published 2025)

System: NSG-SGM3×IL15 mice humanized with human PBMCs
Experiment: Cytokine release syndrome (CRS) induction in PBMC-humanized mice, serum cytokine levels
Format: in vivo, mouse
Description: FIGS. 9A-9C show comparisons of TNF (FIG. 9A), IL-6 (FIG. 9B), and IL-2 (FIG. 9C) levels in NSG-SGM3 mice and NSG-SGM3×IL15 mice engrafted with 5×10^6 human PBMCs per mouse.
FIGS. 10A-10C show comparisons of IFN-γ (FIG. 10A), TNF (FIG. 10B), and IL-6 (FIG. 10C) levels in NSG-SGM3 mice and NSG-SGM3×IL15 mice engrafted with 1×10^6 or 2×10^6 human PBMCs per mouse, with two different doses of irradiation (150 and 175 cGy).
NSG-SGM3×IL15 and NSG-SGM3 mice humanized with human PBMCs and then dosed with various drugs to induce cytokine release syndrome (CRS). Briefly, the mice were irradiated (100 cGy) and administered PBS, OKT3, Anti-CD28, or a CD19×CD3 BiTE.
The use of lower levels of PBMCs for humanization was also tested. Briefly, NSG-SGM3×IL15 and NSG-SGM3 mice were irradiated (150 cGy or 175 cGy) and administered human PBMCs intravenously (1×10^6/mouse or 2×10^6/mouse) on day 0. On day 12, mice were dosed with PBS or OKT3 and serum cytokine levels were analyzed.

For “OKT3: drug dosed to induce cytokine release syndrome; known to induce cytokine release”, the “serum cytokine levels (TNF, IL-6, IL-2)” value (NSG-SGM3×IL15 mice as compared to NSG-SGM3 mice, irradiated 100 cGy, 5×10^6 human PBMCs per mouse, FIGS. 9A-9C) was “higher cytokine levels” and the “serum cytokine levels (IFN-γ, TNF, IL-6)” value (irradiated 150 cGy or 175 cGy, 1×10^6 or 2×10^6 human PBMCs per mouse, dosed on day 12, drug vs PBS control, FIGS. 10A-10C) was “greater difference between the drug (OKT3) and control (PBS)”.
